Measured values taken from article PMC3378326.

Experiments:
FGF1 = FGF1 (UniProt P05230); test: SPR
FGF8b = test: SPR

Sequence of FGF1 (P05230 whole entry): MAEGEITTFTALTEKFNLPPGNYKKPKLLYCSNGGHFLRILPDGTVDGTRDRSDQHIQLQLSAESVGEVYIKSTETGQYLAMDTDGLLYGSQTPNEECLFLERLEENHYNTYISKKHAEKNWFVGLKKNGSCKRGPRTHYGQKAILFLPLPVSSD

| Substance | Kd (FGF1) | Kd (FGF8b) |
| --- | --- | --- |
| D1-D2-D3^ΔAB/linker (FGFR3c), naturally occurring isoform of FGFR3c lacking the AB/linker (domain or fragment) | 0.31 µM | 0.367 µM |
| D1-AB-D2-D3 (FGFR3c), full-length FGFR3c ectodomain (from UniProt P22607 23-375) (domain or fragment) | – | 0.888 µM |
